# Laboratory results from patent publication US7053194 (FOX CHASE CANCER CENTER, dated 2006).
# Molecular target: T1, GST p53 (amino acids 1-393), GST fusion protein of full-length p53 (human, UniProt P04637 1-393)
# T1 construct: not shown: glutathione S-transferase (GST) fusion partner
# Experiment: in vitro interaction of truncated mSin3a with GST p53
# Method: GST-fusion proteins were prepared from E. coli cells as described (Murphy et al., Genes & Devel. 10:2971–2980, 1996). One microgram of GST or fusion protein was bound to glutathione sepharose beads and incubated with 10 uL of ^35S methionine labeled, in vitro translated proteins generated in a coupled transcription/translation system (TNT, Promega). Binding occurred in 300 uL of binding buffer (20 mM Hepes pH 7.9/150 mM KC1/1 mM EDTA/4 mM MgC12/1 mM DTT/0.02% NP-40/10% glycerol) supplemented with protease inhibitors. Proteins were bound for 30 minutes at 4 degrees, and bound complexes were washed three times in wash buffer with constant vortexing (20 mM Hepes pH 7.9/150 mM KC1/1 mM EDTA/4 mM MgCl2/1 mM DTT/0.1% NP-40/10% glycerol). Bound proteins were eluted in 1× Laemmli sample buffer and separated on 7.5% or 10% SDS-PAGE. […] Bound complexes were washed twice in NP-40 buffer, once in RIPA buffer, and resolved on SDS-PAGE.
# T1 sequence (P04637 whole entry, the tested form may be a part): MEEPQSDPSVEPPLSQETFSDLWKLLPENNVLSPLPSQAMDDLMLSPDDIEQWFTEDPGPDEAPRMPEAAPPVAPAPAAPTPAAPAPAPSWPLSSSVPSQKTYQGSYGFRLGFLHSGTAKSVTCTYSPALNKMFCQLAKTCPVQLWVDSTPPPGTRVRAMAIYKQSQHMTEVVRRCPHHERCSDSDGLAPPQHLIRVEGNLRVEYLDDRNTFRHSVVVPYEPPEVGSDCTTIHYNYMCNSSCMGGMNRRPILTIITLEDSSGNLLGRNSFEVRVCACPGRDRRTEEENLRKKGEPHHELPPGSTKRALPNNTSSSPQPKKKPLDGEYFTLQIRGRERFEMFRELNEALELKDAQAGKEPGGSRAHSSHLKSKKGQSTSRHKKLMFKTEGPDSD
row,Binder,binding result
1,"truncated mSin3a, amino acids 112-192 (paired amphipathic helix 1) (other, UniProt Q60520 112-192, looked up, range 112-192; Printed PAM is read as PAH1; also called PAM (so in the source); PAH1) VQGQQQFQRLKVEDALSYLDQVKLQFGSQPQVYNDFLDIMKEFKSQSIDTPGVISRVSQLFKGHPDLIMGFNTFLPPGYKI",no binding
2,"truncated mSin3a, amino acids 297-529 (PAH2-3) (other, UniProt Q60520 297-529, looked up, range 297-529) QNNQPVEFNHAINYVNKIKNRFQGQPDIYKAFLEILHTYQKEQRNAKEAGGNYTPALTEQEVYAQVARLFKNQEDLLSEFGQFLPDANSSVLLSKTTAEKVDSVRNDHGGTVKKPQLNNKPQRPSQNGCQIRRHSGTGATPPVKKKPKLMSLKESSMADASKHGVGTESLFFDKVRKALRSAEAYENFLRCLVIFNQEVISRAELVQLVSPFLGKFPELFNWFKNFLGYKESV",binds
3,"truncated mSin3a, amino acids 297-386 (PAH 2) (other, UniProt Q60520 297-386, looked up, range 297-386) QNNQPVEFNHAINYVNKIKNRFQGQPDIYKAFLEILHTYQKEQRNAKEAGGNYTPALTEQEVYAQVARLFKNQEDLLSEFGQFLPDANSS",no binding
